Data taken from PMC10296842, “How Do Cancer-Related Mutations Affect the Oligomerisation State of the p53 Tetramerisation Domain?” (Current Issues in Molecular Biology, 2023).

Molecular target: the molecule itself
Test: native MS; peptide alone in 200 mM ammonium acetate, pH 7; high monomer concentration (80 uM WT and T329I, 100 uM R337H), cone voltage 40 V (raised to 80-120 V to dissociate the oligomers); positive ESI, TOF and ion mobility-TOF; WT and R337H not isotope-labelled

B1: 37TD-WT (wild-type p53 tetramerisation domain peptide, residues 320-356) (peptide, UniProt P04637 320-356, looked up)
chain: Ac-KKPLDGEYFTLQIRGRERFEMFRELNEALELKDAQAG-NH2
modifications: also: 13C-methyl Met340 in the isotope-labelled form
notes: p53 tetramerisation domain, residues 320-356 (37 amino acids); Made twice: with normal methionine (used in native MS and CD) and with 13C-methyl methionine (used in NMR); also called WT TD; p53TD; source: synthetic peptide (manual Fmoc/tBu SPPS), purified by semi-preparative HPLC
stoichiometry N: 4
